Non-standard residues stand in square brackets, D forms with d. No end group written: not given here.
Key:
[1] = target: T1, Interleukin-1 receptor accessory protein (IL-1RacP), on A549 carcinoma cells (human, UniProt Q9NPH3 21-570); assay: cell-based or functional assay
T1 sequence (looked up): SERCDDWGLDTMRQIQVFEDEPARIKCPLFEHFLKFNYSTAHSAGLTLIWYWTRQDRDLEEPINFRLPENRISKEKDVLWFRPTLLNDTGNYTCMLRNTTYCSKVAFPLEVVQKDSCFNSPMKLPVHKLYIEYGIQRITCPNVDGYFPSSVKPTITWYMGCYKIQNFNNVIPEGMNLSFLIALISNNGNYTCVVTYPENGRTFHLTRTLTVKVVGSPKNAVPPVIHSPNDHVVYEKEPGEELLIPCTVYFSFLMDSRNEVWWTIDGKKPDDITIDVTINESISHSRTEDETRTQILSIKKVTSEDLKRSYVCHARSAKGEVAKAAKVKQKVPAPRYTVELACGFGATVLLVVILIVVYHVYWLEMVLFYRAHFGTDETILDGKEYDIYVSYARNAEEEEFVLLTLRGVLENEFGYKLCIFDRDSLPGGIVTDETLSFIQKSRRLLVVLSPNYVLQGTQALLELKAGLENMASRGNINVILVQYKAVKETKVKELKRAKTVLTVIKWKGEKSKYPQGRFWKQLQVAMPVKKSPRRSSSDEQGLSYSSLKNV

[2] = target: Insulin-like growth factor-1 receptor (IGF-1R) (human, UniProt P08069 31-1367); assay: cell-based or functional assay
Sequence of Insulin-like growth factor-1 receptor (IGF-1R) (P08069 31-1367): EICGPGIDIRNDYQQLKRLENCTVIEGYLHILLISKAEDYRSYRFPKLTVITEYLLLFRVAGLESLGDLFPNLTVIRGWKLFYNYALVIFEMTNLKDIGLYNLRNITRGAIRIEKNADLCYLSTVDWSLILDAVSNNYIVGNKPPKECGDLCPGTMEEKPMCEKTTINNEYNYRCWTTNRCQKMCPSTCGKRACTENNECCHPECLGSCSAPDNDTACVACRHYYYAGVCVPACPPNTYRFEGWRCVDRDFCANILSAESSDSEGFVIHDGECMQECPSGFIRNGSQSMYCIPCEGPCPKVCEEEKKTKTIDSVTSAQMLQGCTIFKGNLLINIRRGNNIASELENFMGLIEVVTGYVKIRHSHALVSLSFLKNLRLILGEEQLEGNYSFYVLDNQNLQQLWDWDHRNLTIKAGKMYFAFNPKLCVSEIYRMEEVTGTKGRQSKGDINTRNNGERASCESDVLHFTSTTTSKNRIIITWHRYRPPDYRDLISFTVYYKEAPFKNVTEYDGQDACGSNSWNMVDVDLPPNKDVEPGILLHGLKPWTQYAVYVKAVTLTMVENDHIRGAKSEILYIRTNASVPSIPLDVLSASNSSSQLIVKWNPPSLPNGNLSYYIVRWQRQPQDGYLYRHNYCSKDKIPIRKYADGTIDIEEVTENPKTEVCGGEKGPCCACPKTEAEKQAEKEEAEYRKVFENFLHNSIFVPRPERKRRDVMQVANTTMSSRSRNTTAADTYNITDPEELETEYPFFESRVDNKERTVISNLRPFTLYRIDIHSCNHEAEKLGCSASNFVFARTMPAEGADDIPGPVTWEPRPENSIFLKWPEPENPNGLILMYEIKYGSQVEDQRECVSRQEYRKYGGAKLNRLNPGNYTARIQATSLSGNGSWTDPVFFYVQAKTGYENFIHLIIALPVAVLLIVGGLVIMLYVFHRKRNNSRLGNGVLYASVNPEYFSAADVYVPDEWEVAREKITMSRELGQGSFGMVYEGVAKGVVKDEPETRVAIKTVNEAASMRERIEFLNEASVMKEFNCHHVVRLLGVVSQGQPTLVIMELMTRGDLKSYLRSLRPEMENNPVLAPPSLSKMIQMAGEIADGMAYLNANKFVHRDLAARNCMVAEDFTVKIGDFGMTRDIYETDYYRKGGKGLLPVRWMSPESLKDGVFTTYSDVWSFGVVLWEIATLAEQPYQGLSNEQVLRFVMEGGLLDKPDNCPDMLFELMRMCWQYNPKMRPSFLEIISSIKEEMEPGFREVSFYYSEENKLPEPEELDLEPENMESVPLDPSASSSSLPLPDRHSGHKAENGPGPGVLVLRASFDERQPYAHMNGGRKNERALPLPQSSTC

APRYTVELA [API-101]
IL-1 induced proliferation in A549 carcinoma cells, 3H-thymidine incorporation [1]: 1000 nM

[dE][dS][dD][dV][dL][dH][dF][dT][dS][dT] [APG-202]
IGF-1 induced proliferation in A549 carcinoma cells, 3H-thymidine incorporation [2]: 10 nM

[dS][dL][dF][dV][dP][dR][dP][dE][dR][dK] [APG-201]
IGF-1 induced proliferation in A549 carcinoma cells, 3H-thymidine incorporation [2]: 1000 nM

MKLPVHKLY [API-103]
IL-1 induced proliferation in A549 carcinoma cells, 3H-thymidine incorporation [1]: 1000 nM

[dL][dR][dK][dY][dA][dD]G[dT][dL] [APG-204]
IGF-1 induced proliferation in A549 carcinoma cells, 3H-thymidine incorporation [2]: 10 nM

VGSPKNAVPPV [API-106]
IL-1 induced proliferation in A549 carcinoma cells, 3H-thymidine incorporation [1]: 10000 nM

Source: patent US20070037210A1 (VALO HSJ LIMITED PARTNERSHIP, published 2007)
